Laboratory results: article doi:10.1101/2025.11.06.687086 (bioRxiv, 2025)

Assays:
[1] = biological target: T1, A/Japan/305/1957 (H2N2) HA (Influenza A virus A/Japan/305/1957 …, UniProt P03451, strain); assay: ELISA; conditions: one partner purified
T1 construct: source: Sf9, baculovirus, purified from the supernatant (Ni Sepharose excel, SEC)

[2] = biological target: T2, A/Michigan/45/2015 (H1N1) HA (Influenza A virus A/Michigan/45/2015 …, UniProt A0A1J0CXU0, strain); assay: ELISA; conditions: one partner purified
[3] = biological target: A/California/07/2009 (H1N1) HA (Influenza A virus A/California/07/2009 …, UniProt C3W5X2, strain); assay: ELISA; conditions: one partner purified
[4] = biological target: T3, A/Taiwan/01/1986 (H1N1) HA (Influenza A virus A/Taiwan/1/1986 (H1N1), UniProt F5CU03, strain); assay: ELISA; conditions: one partner purified
T3 construct: source: bought: Sino Biological

[5] = biological target: T4, A/Solomon Islands/3/2006 (H1N1) HA (Influenza A virus A/Solomon …, strain); assay: ELISA; conditions: one partner purified
[6] = biological target: A/Beijing/262/1995 (H1N1) HA (Influenza A virus A/Beijing/262/1995 …, UniProt B4UPF7, strain); assay: ELISA; conditions: one partner purified
[7] = biological target: T5, A/USSR/90/1977 (H1N1) HA (Influenza A virus A/USSR/90/1977 (H1N1), UniProt P03453, strain); assay: ELISA; conditions: one partner purified
T5 construct: source: bought: Sino Biological

[8] = biological target: A/northern pintail/WA/40964/2014 (H5N8) HA (influenza A virus A/northern …, UniProt A0A0C4WPH5, strain); assay: ELISA; conditions: one partner purified
[9] = biological target: T2, A/Michigan/45/2015 (H1N1) HA; assay: BLI; conditions: both partners purified
[10] = biological target: T4, A/Solomon Islands/3/2006 (H1N1) HA; assay: cryo-EM structure; conditions: both partners purified

Measured: binding result

B1: HB31 IgG (antibody, V domains shown)
VH: EVQLLESGGGLVQPGGSLRLSCTVSGFTSSNYDMSWVRQAPGKGLEWVSGISGTGRDTYYADSVKGRFTISRDNSKNTLSLQMNSLRADDTAVYFCARDRPVLRYFDWQPYGLDVWGKGTTVTVSS
VL: QSALTQPPSASGSPGQSVTISCTGTSSDVGGYNYVSWYQQYPSKAPKLMIYEVSKRPSGVPDRFSGSKSGNTASLTVSGLQAEDEADYYCNSYAGSNLYVFGTGTKVTVL
not listed: [9] | [10]
binds: all other assays above

B2: HB34 IgG (antibody, V domains shown)
VH: EVQLLESGGGLVQPGGSLRLSCTVSGFTSSNYDMSWVRQAPGKGLEWVSGISGTGRDTYYADSVKGRFTISRDNSKNTLSLQMNSLRADDTAVYFCARDRPVLRYFDWQPYGLDVWGKGTTVTVSS
VL: QSALTQPASVSGSPGQSITISCTGTSSDVGSYNLVSWYQQHPGKAPKLMIYEGSQRPSGVSNRFSGSKSGNTASLTISGLQAEDEADYYCCSYASSTSYVFGTGTKVTVL
not listed: [9] | [10]
binds: all other assays above

B3: HB315 IgG (antibody, V domains shown)
VH: EVQLLESGGGLAQPGGSLRLSCTASGFTFSNFAMNWVRQAPGKGLEWVSFINSGSGSTYYADSVKGRFTISRDNSENTLFLQMNSLRAEDTAVYYCAKDLGRAIFGLVIPEGAFDIWGQGTMVTVSS
VL: EIVMTQSPSSLSASVGDRVTITCRASQSINNHLNWYQQKPGKAPKLLIYAASSLQSGVPSRFSGSGSGTDFTLTISSLQPADFATYHCQQSYGVPLTFGQGTKVEIK
not listed: [9] | [10]
binds: all other assays above

B4: HB31 Fab (Fab, V domains shown)
VH: EVQLLESGGGLVQPGGSLRLSCTVSGFTSSNYDMSWVRQAPGKGLEWVSGISGTGRDTYYADSVKGRFTISRDNSKNTLSLQMNSLRADDTAVYFCARDRPVLRYFDWQPYGLDVWGKGTTVTVSS
VL: QSALTQPPSASGSPGQSVTISCTGTSSDVGGYNYVSWYQQYPSKAPKLMIYEVSKRPSGVPDRFSGSKSGNTASLTVSGLQAEDEADYYCNSYAGSNLYVFGTGTKVTVL
binds: [9] | [10]

B5: HB34 Fab (Fab, V domains shown)
VH: EVQLLESGGGLVQPGGSLRLSCTVSGFTSSNYDMSWVRQAPGKGLEWVSGISGTGRDTYYADSVKGRFTISRDNSKNTLSLQMNSLRADDTAVYFCARDRPVLRYFDWQPYGLDVWGKGTTVTVSS
VL: QSALTQPASVSGSPGQSITISCTGTSSDVGSYNLVSWYQQHPGKAPKLMIYEGSQRPSGVSNRFSGSKSGNTASLTISGLQAEDEADYYCCSYASSTSYVFGTGTKVTVL
binds: [9] | [10]

B6: HB315 Fab (Fab, V domains shown)
VH: EVQLLESGGGLAQPGGSLRLSCTASGFTFSNFAMNWVRQAPGKGLEWVSFINSGSGSTYYADSVKGRFTISRDNSENTLFLQMNSLRAEDTAVYYCAKDLGRAIFGLVIPEGAFDIWGQGTMVTVSS
VL: EIVMTQSPSSLSASVGDRVTITCRASQSINNHLNWYQQKPGKAPKLLIYAASSLQSGVPSRFSGSGSGTDFTLTISSLQPADFATYHCQQSYGVPLTFGQGTKVEIK
binds: [9] | [10]

B7: CR9114 Fab (Fab, V domains shown)
VH: QVQLVQSGAEVKKPGSSVKVSCKSSGGTSNNYAISWVRQAPGQGLDWMGGISPIFGSTAYAQKFQGRVTISADIFSNTAYMELNSLTSEDTAVYFCARHGNYYYYSGMDVWGQGTTVTVSS
VL: QSALTQPPAVSGTPGQRVTISCSGSDSNIGRRSVNWYQQFPGTAPKLLIYSNDQRPSVVPDRFSGSKSGTSASLAISGLQSEDEAEYYCAAWDDSLKGAVFGGGTQLTVL
binds: [9]

B8: FISW84 Fab (Fab, V domains shown)
VH: EVQLLESGGGLVQPGGSLRLSCAASGFTFSSYGMAWVRQAPGKGLEWVSFISATGLSTYFADSVKGRFTISRDTTKNTLYLQMNSLRADDTAVYFCARMRRTMIAFGGNDFWGQGTLVTVSS
VL: EVVMTQSPATLSVSPGEGATLSCRASQSVNTNVAWYQQKPGQAPRLLIYGASTRATGIPARFSGSGSGTEFTLTISTLQSEDFAVYYCQQYSNWPPITFGQGTRLEIK
notes: also called anchor Fab FISW84
binds: [9]
